From patent publication US20220227873A1 (COUNCIL OF THE QUEENSLAND INSTITUTE OF MEDICAL RESEARCH, published 2022)
Substitutions are numbered along the chain they refer to.

B1: P9-11 (antibody, IgG1, V domains shown)
VH: EVQLVESGGGLVQPGGSLRLSCAASGFTFSSYYIHWVRQAPGKGLEWVAYISPSGGYTYYADSVKGRFTISADTSKNTAYLQMNSLRAEDTAVYYCARGAVLYSSAMDYWGQGTLVTVSS
VL: DIQMTQSPSSLSASVGDRVTITCRASQSVSSAVAWYQQKPGKAPKLLIYSASSLYSGVPSRFSGSRSGTDFTLTISSLQPEDFATYYCQQYYPSPSTFGQGTKVEIKR
notes: Tested as bivalent monospecific native human full-length IgG1; also called ABS clone P9-11
B2: P9-24 (antibody, IgG1, V domains shown)
VH: EVQLVESGGGLVQPGGSLRLSCAASGFTFSSYFIHWVRQAPGKGLEWVASIYPTSHSTSYADSVKGRFTISADTSKNTAYLQMNSLRAEDTAVYYCARLGYPGVMDYWGQGTLVTVSS
VL: B1 VL with Y91V, Y92D, P93S, S94R, P95L, S96A
notes: Tested as bivalent monospecific native human full-length IgG1; also called ABS clone P9-24
B3: P9-34 (antibody, IgG1, V domains shown)
VH: B2 VH with S31T, S50Y, T54Q, S55G, H56G, S57Y, S59Y, L99Q, G100S, M105F
VL: B1 VL with Y91W, Y92T, P93I, S94A, P95L, S96T
B4: P9-37 (antibody, IgG1, V domains shown)
VH: EVQLVESGGGLVQPGGSLRLSCAASGFTFWKYGIHWVRQAPGKGLEWVAYIYPAGGITSYADSVKGRFTISADTSKNTAYLQMNSLRAEDTAVYYCARSDYYSGMGMDYWGQGTLVTVSS
VL: B1 VL
notes: Tested as bivalent monospecific native human full-length IgG1; also called ABS clone P9-37
B5: P9-57 (antibody, IgG1, V domains shown)
VH: B2 VH with F33Y, S50T, T54S, S55G, H56G, S57Y, S59Y, L99Y, G100S, M105L
VL: B1 VL with Y91S, Y92S, P93S, S94F, P95L, S96W
notes: Tested as bivalent monospecific native human full-length IgG1; also called ABS clone P9-57
B6: P9-25 (antibody, IgG1, V domains shown)
VH: B2 VH with F33Y, T54Y, S55G, H56S, S57Y, S59Y, P102S, G103S, V104G
VL: B1 VL with Y91W, Y92A, S94D, P95L, S96T
notes: Tested as bivalent monospecific native human full-length IgG1; also called ABS clone P9-25
B7: P9-50 (antibody, IgG1, V domains shown)
VH: EVQLVESGGGLVQPGGSLRLSCAASGFTFSSYVIHWVRQAPGKGLEWVALIYSSGGYTQYADSVKGRFTISADTSKNTAYLQMNSLRAEDTAVYYCARVGTTYPSRYLEALDYWGQGTLVTVSS
VL: B1 VL with Y91F, Y92G, P93S, P95L, S96P
notes: Tested as bivalent monospecific native human full-length IgG1; Heavy chain copied as printed: it ends 'SLSPG' without the last K; also called ABS clone P9-50

Experiments:
[1] = target: Human GAL9 protein (Acro Biosystems, Human Gal9 His-tag Cat #LG9-H5244) (human); assay: Octet BLI, IgG1 immobilised on biosensor, GAL9 analyte dilution series, global fit (monovalent affinity)
Sequence of Human GAL9 protein (Acro Biosystems, Human Gal9 His-tag Cat #LG9-H5244) (human) (chain, as listed by the source): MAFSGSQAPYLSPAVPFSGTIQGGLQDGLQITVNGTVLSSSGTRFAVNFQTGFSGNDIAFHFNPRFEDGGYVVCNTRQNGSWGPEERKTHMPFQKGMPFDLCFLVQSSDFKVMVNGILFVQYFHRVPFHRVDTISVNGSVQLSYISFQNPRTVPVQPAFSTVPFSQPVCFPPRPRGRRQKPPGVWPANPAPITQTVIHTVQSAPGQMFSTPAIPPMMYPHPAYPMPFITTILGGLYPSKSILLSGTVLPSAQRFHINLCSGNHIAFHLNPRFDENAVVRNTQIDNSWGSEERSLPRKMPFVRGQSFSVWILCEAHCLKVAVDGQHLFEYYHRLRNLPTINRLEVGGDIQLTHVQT

[2] = target: human GAL9 of the human PBMC cultures (human); assay: cell-based or functional assay
[3] = target: human GAL9 of the human PBMC cultures (human); assay: cell-based or functional assay; remark: listed apart in the source

| Binder | Kd [1] [nM] | TNF-α 72 hr, Fold change, Average [2] [fold] | TNF-α 72 hr, Fold change, Donor 19 [2] [fold] | TNF-α 72 hr, Fold change, Donor 25 [2] [fold] | TNF-α 72 hr, Fold change, Donor 27 [2] [fold] | TNF-α 72 hr, Fold change, as % [2] [%] | TNF-α 72 hr, pg/ml, Donor 19 (HCMV-peptide stimulated PBMCs) [2] [pg/mL] | TNF-α 72 hr, pg/ml, Donor 25 (HCMV-peptide stimulated PBMCs) [2] [pg/mL] | TNF-α 72 hr, pg/ml, Donor 27 (HCMV-peptide stimulated PBMCs) [2] [pg/mL] | INF-γ 72 hr, Fold change, Average [3] [fold] | INF-γ 72 hr, Fold change, Donor 19 [3] [fold] | INF-γ 72 hr, Fold change, Donor 25 [3] [fold] | INF-γ 72 hr, Fold change, Donor 27 [3] [fold] | INF-γ 72 hr, Fold change, as % [3] [%] | INF-γ 72 hr, pg/ml, Donor 19 (HCMV-peptide stimulated PBMCs) [3] [pg/mL] | INF-γ 72 hr, pg/ml, Donor 25 (HCMV-peptide stimulated PBMCs) [3] [pg/mL] | INF-γ 72 hr, pg/ml, Donor 27 (HCMV-peptide stimulated PBMCs) [3] [pg/mL] |
| --- | --- | --- | --- | --- | --- | --- | --- | --- | --- | --- | --- | --- | --- | --- | --- | --- | --- |
| B1 | 6.55 | 0.64 | 0.78 | 0.76 | 0.4 | 64.7 | 607 | 982 | 374 | 0.68 | 0.99 | 0.52 | 0.53 | 68.2 | 5890 | 23000 | 891 |
| B2 | 5.41 | 0.54 | – | 0.75 | 0.32 | 53.5 | – | 962 | 299 | 0.8 | – | 0.82 | 0.78 | 87.6 | – | 35700 | 1260 |
| B3 | – | 0.74 | – | 0.68 | 0.79 | 73.7 | – | 874 | 596 | 0.88 | – | 1.01 | 0.74 | 87.6 | – | 44400 | 1050 |
| B4 | 4.54 | 0.55 | 0.55 | – | – | 55.2 | 429 | – | – | 0.55 | 0.55 | – | – | 54.6 | 3230 | – | – |
| B5 | 2.56 | 0.54 | 0.54 | – | – | 53.7 | 417 | – | – | 0.83 | 0.83 | – | – | 83.4 | 4940 | – | – |
| B6 | 3.48 | – | – | – | – | – | – | – | – | – | – | – | – | – | – | – | – |
| B7 | 1.21 | – | – | – | – | – | – | – | – | – | – | – | – | – | – | – | – |
